Data reported in article PMC12769810, “Structure and substrate promiscuity of Campylobacter jejuni periplasmic nitrate reductase (Nap) and phylogenetic analysis of Nap homologs” (The Journal of Biological Chemistry, 2025).

How the values were obtained:
[1] = target: T1, CjNapA (WT NapA) (Campylobacter jejuni, UniProt Q9PPD9); assay: cryo-EM structure, […] Å; assay type: binding; details: coordinated by Cys42, Cys45, Cys49, Cys77
T1 construct: recombinant catalytic subunit NapA without NapB; native N-terminal TAT signal peptide replaced by that of E. coli; 889 residues modelled by cryo-EM

[2] = target: T1, CjNapA (WT NapA); assay: steady-state nitrate reductase assay, reduced methyl viologen oxidation, double-reciprocal plot; assay type: biochemical
[3] = tested on: [O-][Cl+2]([O-])O; assay: purified protein; assay type: biochemical, Campylobacter jejuni; details: reduced methyl viologen, 50 mM HEPES pH 7, room temperature, argon glove box, 67 nM enzyme
[4] = tested on: [O-][Cl+3]([O-])([O-])O; assay: purified protein; assay type: biochemical, Campylobacter jejuni; details: reduced methyl viologen, 50 mM HEPES pH 7, room temperature, argon glove box, 67 nM enzyme, corrected for background oxidation

T1 sequence (Q9PPD9 31-924): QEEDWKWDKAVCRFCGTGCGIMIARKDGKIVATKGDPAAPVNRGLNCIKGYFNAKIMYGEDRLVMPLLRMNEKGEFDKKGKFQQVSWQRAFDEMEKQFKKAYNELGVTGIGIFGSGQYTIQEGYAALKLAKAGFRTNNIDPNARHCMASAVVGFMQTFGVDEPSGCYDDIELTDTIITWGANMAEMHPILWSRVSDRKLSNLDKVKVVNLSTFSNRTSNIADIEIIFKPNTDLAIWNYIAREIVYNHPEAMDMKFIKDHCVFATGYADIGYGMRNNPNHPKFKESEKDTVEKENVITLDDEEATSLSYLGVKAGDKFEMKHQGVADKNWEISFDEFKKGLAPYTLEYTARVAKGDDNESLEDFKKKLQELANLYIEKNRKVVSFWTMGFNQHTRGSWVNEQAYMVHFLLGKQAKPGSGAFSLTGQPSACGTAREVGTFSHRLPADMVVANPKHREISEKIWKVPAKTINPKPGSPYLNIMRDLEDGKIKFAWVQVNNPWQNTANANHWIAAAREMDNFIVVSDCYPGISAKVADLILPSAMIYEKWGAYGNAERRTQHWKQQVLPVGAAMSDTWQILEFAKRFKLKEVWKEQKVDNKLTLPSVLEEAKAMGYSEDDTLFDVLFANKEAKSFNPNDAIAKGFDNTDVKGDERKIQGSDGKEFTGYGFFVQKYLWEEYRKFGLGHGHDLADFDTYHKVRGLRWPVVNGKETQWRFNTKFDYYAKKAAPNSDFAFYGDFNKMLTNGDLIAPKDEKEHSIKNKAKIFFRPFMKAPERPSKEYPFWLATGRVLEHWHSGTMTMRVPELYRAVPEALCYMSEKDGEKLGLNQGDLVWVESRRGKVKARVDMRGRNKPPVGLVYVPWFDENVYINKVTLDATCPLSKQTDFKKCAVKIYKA

**Q.** `[S]12[Fe]3[S]4[Fe]1[S]1[Fe]2[S]3[Fe]41` [[4Fe4S] cluster] was tested. Which “cryo-EM structure, 3.04 Å” value [1] did it give?
**A.** NapA has a [4Fe4S] cluster, which is located closer to the surface of the protein

**Q.** With `[O-][Cl+3]([O-])([O-])O` [perchlorate] as the compound, how does the Ki [2] read?
**A.** 4.7 ± 0.3 mM

**Q.** What does the source list for “CjNapA (WT NapA) (Campylobacter jejuni subsp. jejuni NCTC 11168 = ATCC 700819)”?
**A.** Km [3]: 0.968 ± 0.093 mM; kcat [3]: 2.13 ± 0.04 s⁻¹; kcat/Km [3]: 2200 M⁻¹ s⁻¹; Km [4]: 22.907 ± 3.132 mM; kcat [4]: 2.52 ± 0.07 s⁻¹; kcat/Km [4]: 100 M⁻¹ s⁻¹
